{
  "source": "patent US10611814",
  "about": "(GEMOAB MONOCLONALS, dated 2020)",
  "assay_in_all_cases": "cell-based or functional assay",
  "key": {"[1]": {"target": "CD123 antigen (UniProt P26951 19-378, limits assumed)", "sequence (P26951 19-378 limits assumed)": "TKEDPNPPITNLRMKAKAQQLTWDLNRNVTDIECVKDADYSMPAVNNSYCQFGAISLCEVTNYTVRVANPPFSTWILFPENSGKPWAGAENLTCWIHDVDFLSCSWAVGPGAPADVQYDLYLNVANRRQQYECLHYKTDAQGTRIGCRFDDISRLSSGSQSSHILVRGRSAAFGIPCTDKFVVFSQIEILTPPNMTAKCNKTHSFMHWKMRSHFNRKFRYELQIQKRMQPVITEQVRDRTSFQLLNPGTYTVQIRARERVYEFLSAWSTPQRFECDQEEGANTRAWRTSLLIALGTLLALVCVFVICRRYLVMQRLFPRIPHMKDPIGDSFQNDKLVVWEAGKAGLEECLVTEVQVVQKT"}, "[2]": {"target": "CD33 antigen (UniProt P20138 18-364, limits assumed)", "sequence (P20138 18-364 limits assumed)": "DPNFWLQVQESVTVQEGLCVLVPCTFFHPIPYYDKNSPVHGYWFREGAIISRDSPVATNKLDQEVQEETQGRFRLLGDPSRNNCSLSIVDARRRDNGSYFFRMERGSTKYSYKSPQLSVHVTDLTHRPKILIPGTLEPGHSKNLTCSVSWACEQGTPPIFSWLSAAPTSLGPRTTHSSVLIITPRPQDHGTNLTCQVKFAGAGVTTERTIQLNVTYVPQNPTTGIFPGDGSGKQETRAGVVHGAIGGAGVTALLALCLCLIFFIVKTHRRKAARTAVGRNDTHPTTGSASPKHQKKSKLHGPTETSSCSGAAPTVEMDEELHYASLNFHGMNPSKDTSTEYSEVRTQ"}, "[3]": {"target": "T1, prostate stem cell antigen (UniProt O43653 12-83, limits assumed)", "T1 sequence (looked up)": "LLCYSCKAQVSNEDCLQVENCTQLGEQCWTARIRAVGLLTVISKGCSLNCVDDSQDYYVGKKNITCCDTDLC"}, "[4]": {"target": "prostate membrane antigen (UniProt Q04609 1-750, limits assumed)", "sequence (Q04609 whole entry)": "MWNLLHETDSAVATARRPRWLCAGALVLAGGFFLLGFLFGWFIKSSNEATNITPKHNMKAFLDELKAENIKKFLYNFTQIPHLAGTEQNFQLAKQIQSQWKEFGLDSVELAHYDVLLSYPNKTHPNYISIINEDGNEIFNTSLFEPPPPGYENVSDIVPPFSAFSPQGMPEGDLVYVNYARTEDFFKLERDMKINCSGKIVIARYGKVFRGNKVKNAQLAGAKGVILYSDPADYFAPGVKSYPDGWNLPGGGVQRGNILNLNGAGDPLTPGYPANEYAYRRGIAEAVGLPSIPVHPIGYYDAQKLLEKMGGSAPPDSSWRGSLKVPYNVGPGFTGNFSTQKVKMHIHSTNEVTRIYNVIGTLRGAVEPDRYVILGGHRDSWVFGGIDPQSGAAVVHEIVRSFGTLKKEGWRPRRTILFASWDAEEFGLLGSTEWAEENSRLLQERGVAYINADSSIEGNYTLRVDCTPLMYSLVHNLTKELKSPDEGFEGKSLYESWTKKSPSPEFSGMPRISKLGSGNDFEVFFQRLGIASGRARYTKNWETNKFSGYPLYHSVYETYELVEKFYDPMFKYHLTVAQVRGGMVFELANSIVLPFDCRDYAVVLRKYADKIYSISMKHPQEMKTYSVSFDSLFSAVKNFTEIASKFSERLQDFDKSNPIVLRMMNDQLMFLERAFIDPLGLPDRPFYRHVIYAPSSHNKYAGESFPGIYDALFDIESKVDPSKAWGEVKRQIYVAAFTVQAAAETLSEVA"}},
  "data": [
    {"binder": "target module specific for CD123 (scFv) scFv: DAAQPAEVQLQQSGPELVKPGASVKMSCKASGYTFTDYYMKWVKQSHGKSLEWIGDIIPSNGATFYNQKFKGKATLTVDRSSSTAYMHLNSLTSEDSAVYYCTRSHLLRASWFAYWGQGTLVTVSAASGGGGSGGGGSGGGGSDFVMTQSPSSLTVTAGEKVTMSCKSSQSLLNSGNQKNYLTWYLQKPGQPPKLLIYWASTRESGVPDRFTGSGSGTDFTLTISSVQAEDLAVYYCQNDYSYPYTFGGGTKLEIKGGGGSAAAKPLPEVTDEYARGGPEQKLISEEDLNSAVDHHHHHH", "values": [
      {"measurement": "EC50, 51Cr-release lysis of MOLM-13 by UniCAR T cells, e:t 1:1, 24 h; combination of αCD33 TM + αCD123 TM", "setting": "[1]", "result": 70.2, "unit": "pmol"},
      {"measurement": "EC50, 51Cr-release lysis of OCI-AML3 by UniCAR T cells, e:t 1:1, 24 h; combination of αCD33 TM + αCD123 TM", "setting": "[1]", "result": 80.2, "unit": "pmol"},
      {"measurement": "EC50, lysis of MOLM-13 by UniCAR T cells, e:t 1:1", "setting": "[1]", "result": 45, "unit": "pmol"}
    ]},
    {"binder": "target module specific for CD33 (scFv) scFv: DAAQPAGSDIVLTQSPASLAVSPGQRATITCTASSSVNYIHWYQQKPGQPPKLLIYDTSKVASGVPARFSGSGSGTDFTLTINPVEANDTANYYCQQWRSYPLTFGQGTKLEIKGGGGSGGGGSGASGAGGGGSGGGGSQVQLVQSGAEVKKPGASVKVSCKASGYTFTDYVVHWVRQAPGQGLEWMGYINPYNDGTKYNEKFKGRVTMTRDTSISTAYMELSRLRSDDTAVYYCARDYRYEVYGMDYWGQGTLVTVSSGGGGSAAAKPLPEVTDEYARGGPEQKLISEEDLNSAVDHHHHHH", "values": [
      {"measurement": "EC50, 51Cr-release lysis of MOLM-13 by UniCAR T cells, e:t 1:1, 24 h; combination of αCD33 TM + αCD123 TM", "setting": "[2]", "result": 70.2, "unit": "pmol"},
      {"measurement": "EC50, 51Cr-release lysis of OCI-AML3 by UniCAR T cells, e:t 1:1, 24 h; combination of αCD33 TM + αCD123 TM", "setting": "[2]", "result": 80.2, "unit": "pmol"},
      {"measurement": "EC50, lysis of MOLM-13 by UniCAR T cells, e:t 1:1", "setting": "[2]", "result": 137, "unit": "pmol"}
    ]},
    {"binder": "bi-specific CD33-CD123 target module (bispecific antibody) DAAQPAEVQLQQSGPELVKPGASVKMSCKASGYTFTDYYMKWVKQSHGKSLEWIGDIIPSNGATFYNQKFKGKATLTVDRSSSTAYMHLNSLTSEDSAVYYCTRSHLLRASWFAYWGQGTLVTVSAASGGGGSGGGGSGGGGSDFVMTQSPSSLTVTAGEKVTMSCKSSQSLLNSGNQKNYLTWYLQKPGQPPKLLIYWASTRESGVPDRFTGSGSGTDFTLTISSVQAEDLAVYYCQNDYSYPYTFGGGTKLEIKAAAKPLPEVTDEYARGQVQLVQSGAEVKKPGASVKVSCKASGYTFTDYVVHWVRQAPGQGLEWMGYINPYNDGTKYNEKFKGRVTMTRDTSISTAYMELSRLRSDDTAVYYCARDYRYEVYGMDYWGQGTLVTVSSGGGGSGGGGSGGGGSDIVLTQSPASLAVSPGQRATITCTASSSVNYIHWYQQKPGQPPKLLIYDTSKVASGVPARFSGSGSGTDFTLTINPVEANDTANYYCQQWRSYPLTFGQGTKLEIKGPEQKLISEEDLNSAVDHHHHHH", "values": [
      {"measurement": "EC50, 51Cr-release lysis of MOLM-13 by UniCAR T cells, e:t 1:1, 24 h; bispecific TM", "setting": "[2]", "result": 2.9, "unit": "pmol"},
      {"measurement": "EC50, 51Cr-release lysis of OCI-AML3 by UniCAR T cells, e:t 1:1, 24 h; bispecific TM", "setting": "[2]", "result": 11.7, "unit": "pmol"},
      {"measurement": "EC50, 51Cr-release lysis of MOLM-13 by UniCAR T cells, e:t 1:1, 24 h; bispecific TM", "setting": "[1]", "result": 2.9, "unit": "pmol"},
      {"measurement": "EC50, 51Cr-release lysis of OCI-AML3 by UniCAR T cells, e:t 1:1, 24 h; bispecific TM", "setting": "[1]", "result": 11.7, "unit": "pmol"}
    ]},
    {"binder": "target module specific for PSCA (scFv) scFv: DAAQPAGSDIQMTQSPSSLSASVGDRVTITCGTSQDINNYLNWYQQKPGKVPKLLIYYTSRLHSGVPSRFSGSGSGTDFTLTISSLQPEDVATYYCQQSKTLPWTFGGGTQLTVLGGGGSGGGGSGASAAGGGGSGGGGSQVQLVESGGGLVKPGGSLRLSCAASGFTFSSYSMSWIRQAPGKGLEWVSYINDSGGSTFYPDTVKGRFTISRDNAKNSLYLQMNSLRAEDTAVYYCARRMYYGNSHWHFDVWGQGTTVTVSSGGGGSAAAKPLPEVTDEYARGGPEQKLISEEDLNSAVDHHHHHH", "values": [
      {"measurement": "Half maximal effective dosis (EC50), 51Cr-release lysis of PC3 cells expressing PSCA by UniCAR T cells, e:t 5:1", "setting": "[3]", "result": "~12", "unit": "pmol"}
    ]},
    {"binder": "target module specific for PSMA (scFv) scFv: DAAQPAEVQLQQSGPELVKPGTSVRISCKTSGYTFTEYTIHWVKQSHGKSLEWIGNINPNNGGTTYNQKFEDKATLTVDKSSSTAYMELRSLTSEDSAVYYCAAGWNFDYWGQGTTVTVSSGGGGSGGGGSGGGGSDIVMTQSHKFMSTSVGDRVSIICKASQDVGTAVDWYQQKPGQSPKLLIYWASTRHTGVPDRFTGSGSGTDFTLTITNVQSEDLADYFCQQYNSYPLTFGAGTMLDLKAAAKPLPEVTDEYARGGPEQKLISEEDLNSAVDHHHHHH", "values": [
      {"measurement": "Half maximal effective dosis (EC50), 51Cr-release lysis of PC3 cells expressing PSMA by UniCAR T cells, e:t 5:1", "setting": "[4]", "result": "~12", "unit": "pmol"}
    ]}
  ]
}
